{"source": "patent US7709240B2", "about": "“AMP deaminase originating streptomyces and utilization thereof” (Amano Enzyme Inc., priority 2004, dated 2010)", "key": {"Substrate specificity [1]": {"test": "Substrate specificity", "assay_type": "biochemical"}, "[2]": {"test": "Feasibility test 1: nuclease and deaminase treatment of yeast lysate carried out independently", "settings": "after nuclease treatment; deaminase at 50° C., pH 6, 5 hours", "description": "In test 1, similar to the current production method, treatment with nuclease and treatment with deaminase were carried out independently. Specifically, the treatment was carried out by the following procedure and the IMP conversion rate was calculated. Firstly, nuclease “AMANO” G (Amano Enzyme Inc., 0.1% w/w yeast solid) was added to yeast lysate (YL-15, 0.2%) and they were reacted with each other under the conditions at a temperature of 70° C. and pH 5 for 3 hours. Then, “Deamizyme (50,000 u/mg product) (trade name of Amano Enzyme Inc., 0.01 to 0.04% w/w yeast solid)” that is an AMP deaminase agent derived from the test enzyme (Aspergillus melleus), or a crude enzyme solution prepared from Streptomyces murinus was added and reacted with each other under the conditions at a temperature of 50° C. and pH 6 for 5 hours. Then, the reacted product was heat treated, and then subjected to HPLC analysis. Note here that added amount of AMP deaminase derived from Streptomyces murinus was set so that the activity value thereof became the same as that of “Deamizyme (50,000 u/mg product)” (trade name, Amano Enzyme Inc.)"}, "[3]": {"test": "IMP conversion reaction (HPLC)", "assay_type": "biochemical", "settings": "1.1% AMP solution, pH 7.0, 50° C., 4 hours", "description": "IMP conversion rate by HPLC of AMP deaminase produced by Aspergillus melleus and Streptomyces murinus was examined. Specifically, by using 1/15M phosphate buffer solution (pH 7.0), 1.1% AMP solution was prepared. To 5 ml of 1.1% AMP solution, 0.5 ml of enzyme solution was added and reacted at 50° C. for 4 hours. Thereafter, heat treatment at 100° C. was carried out for 10 minutes, filter filtration (0.45 μm) was carried out, and HPLC analysis was carried out."}, "Substrate specificity [4]": {"test": "Substrate specificity", "assay_type": "biochemical", "settings": "activity with respect to 5′ AMP = 100%", "description": "It is reported that adenosine deaminase derived from Streptomyces aureofaciens has a wide range of substrate property, for example, catalytic ability of AMP (non-patent document 2). Taken this into consideration, in order to confirm whether deaminase derived from Streptomyces murinus obtained in the above-mentioned method is AMP-deaminase or adenosine-deaminase, the substrate specificity was investigated. Note here that the relative activity, when the enzyme activity with respect to 5′ AMP is defined as 100% is represented. […] In particular, the enzyme acted on 5′dAMP, ADP and ATP favorably. From the above-mentioned results, it was confirmed that the deaminase derived from Streptomyces murinus obtained by the above-mentioned method was AMP deaminase. Furthermore, it was determined that the enzyme was able to be employed preferably in a reaction using 5′dAMP, ADP and ATP as a substrate.\nIn order to determine whether the deaminase derived from transformant (SAD-1) obtained as mentioned above was AMP deaminase or Adenosine-deaminase, the substrate specificity was investigated. Note here that relative activities when the enzyme activity with respect to 5′ AMP was defined as 100% are represented. […] In particular, the enzyme acted on 5′-dAMP, ADP and ATP favorably. From the above-mentioned results, it was confirmed that deaminase derived from transformant (SAD-1) was similar to AMP deaminase derived from Streptomyces murinus and it was AMP deaminase. Furthermore, it was determined that the enzyme can be preferably used with respect to the reaction using 5′-dAMP, ADP and ATP as a substrate."}, "Substrate specificity [5]": {"test": "Substrate specificity", "assay_type": "biochemical", "remark": "listed apart in the source"}, "[6]": {"test": "Contaminated phosphatase activity", "assay_type": "biochemical", "settings": "37° C., pH 5.6", "description": "To 1.5 ml of solution obtained by mixing 0.025M 5′IMP-2Na and 0.036M barbital sodium-hydrochloric acid buffer solution (pH 5.6) at the ratio of 1:2, 0.5 ml of sample solution was added so as to obtain a reaction solution, which was reacted at 37° C. for 30 minutes. After the reaction was completed, 200 μl of the solution was taken out, and 5 ml of 6% perchloric acid solution was added so as to stop the reaction. Amidol solution (0.05M, 0.25 ml) was added and mixed, followed by adding and mixing 0.25 ml of 0.067 M ammonium molybdate solution, and further adding and mixing 0.25 ml of water, which was allowed to stand in flowing water for 15 minutes. Then, OD265 was measured. A value similarly measured at the reaction time of 0 minute was defined as a blank. Under the above-mentioned conditions, a case where an absorbance difference is reduced by 0.001 during 30 minutes was defined as one unit.\nThe contaminated phosphatase activities concerning Aspergillus melleus and Streptomyces murinus were measured. In Aspergillus melleus, the contamination activity was observed. On the other hand, in Streptomyces murinus, the phosphatase activity was not observed."}}, "note": "Entries after “also recorded” stand apart in the source; their conditions may differ.", "data": [{"molecule": "AMP deaminase derived from Streptomyces murinus: thermostable AMP deaminase enzyme produced by Streptomyces murinus IFO14802; amino acid sequence SEQ ID NO: 1 (protein, listed as Streptomyces murinus) APPPRQATAAEARTDAYLRSVKDRPAALRAFFRQLPKGGDLHNHLSGAVNTDYLIELAAEDGLCIDATMTAVPSPCGPGTRPAADARTDRAFHDAIVRAWSMQDFPPDENGHDHFFDTFGKFGEVTWRHRGKLLAQVADTVVANNQSYLETMVTPASDGAKQLADQVGWDADLTALHRKLAAGGKLDKLVADARKEADDGDAEFRATEHCGTAKARPACGLTVRWISQASRGSSPVRVFTQLDLGMRLAEADSRFVAVNLVQPEDWDSSLENYSLQMRMVGYLRTVYPKAHVTLHAGELWPGLVKPEALKFHIAEAVDIAHTQRVGHGVDLVHEDNWQRTARTMAARQIAVEVPFSSNAQILGVKGAEHPFTTYRRYGVPVVLATDDPGVSRIDISHEYQYAAATYGLGYPELKDLARASLQYAFLPGASLWQGNPTAQGYHPVAACRAERPGQPVHSAACRRLLDGSARARLEWRQEAAFAAFERAHARG", "values": [{"measurement": "action on substrate 5′-UMP", "setting": "Substrate specificity [1]", "value": "did not act on"}, {"measurement": "IMP conversion rate compared with AMP deaminase derived from Aspergillus melleus", "setting": "[2]", "value": "equivalent"}, {"measurement": "IMP conversion rate compared with AMP deaminase produced by Aspergillus melleus", "setting": "[3]", "value": "the same level"}, {"measurement": "ratio of the side product (hypoxanthine) compared with Aspergillus melleus", "setting": "[3]", "value": "smaller"}, {"measurement": "action on substrate 2′AMP", "setting": "Substrate specificity [4]", "value": "did not act on"}, {"measurement": "action on substrate 3′5′-cyclic AMP (cAMP)", "setting": "Substrate specificity [4]", "value": "also acted on"}, {"measurement": "action on substrate 3′AMP", "setting": "Substrate specificity [4]", "value": "also acted on"}, {"measurement": "action on substrate 5′ AMP", "setting": "Substrate specificity [4]", "value": "most favorably"}, {"measurement": "action on substrate 5′dAMP", "setting": "Substrate specificity [4]", "value": "favorably"}, {"measurement": "action on substrate ADP", "setting": "Substrate specificity [4]", "value": "favorably"}, {"measurement": "action on substrate ATP", "setting": "Substrate specificity [4]", "value": "favorably"}, {"measurement": "action on substrate adenine", "setting": "Substrate specificity [4]", "value": "did not act on"}, {"measurement": "action on substrate 5′-GMP", "setting": "Substrate specificity [5]", "value": "did not act on"}, {"measurement": "contaminated phosphatase activity", "setting": "[6]", "value": "not observed; also recorded: not detected"}]}]}
